Laboratory results published in US20030180895A1.

Assays:
Test in all cases: cell-based or functional assay
[1] = target: Bacillus subtilis xylanase A mutant N17Y (Bacillus subtilis) (UniProt P18429)
[2] = target: Thermomyces lanuginosus wildtype xylanase A (Thermomyces lanuginosus) (UniProt O43097)
[3] = target: Bacillus subtilis wild type xylanase A (Bacillus subtilis) (UniProt P18429)
[4] = target: Bacillus subtilis xylanase A mutant D11S (Bacillus subtilis) (UniProt P18429)
[5] = target: Bacillus subtilis xylanase A mutant D121A (Bacillus subtilis) (UniProt P18429)
[6] = target: Thermomyces lanuginosus xylanase A mutant D19F (Thermomyces lanuginosus) (UniProt O43097)
[7] = target: Bacillus subtilis xylanase A mutant D11W (Bacillus subtilis) (UniProt P18429)
[8] = target: Bacillus subtilis xylanase A mutant D121F (Bacillus subtilis) (UniProt P18429)
[9] = target: Bacillus subtilis xylanase A mutant Y113K (Bacillus subtilis) (UniProt P18429)
[10] = target: Bacillus subtilis xylanase A mutant N114K (Bacillus subtilis) (UniProt P18429)
[11] = target: Bacillus subtilis xylanase A mutant Q175S (Bacillus subtilis) (UniProt P18429)
[12] = target: Bacillus subtilis xylanase A mutant N29D (Bacillus subtilis) (UniProt P18429)
[13] = target: Bacillus subtilis xylanase A mutant G34F (Bacillus subtilis) (UniProt P18429)
[14] = target: Bacillus subtilis xylanase A mutant N17K (Bacillus subtilis) (UniProt P18429)
[15] = target: Bacillus subtilis xylanase A mutant D11F (Bacillus subtilis) (UniProt P18429)
[16] = target: Bacillus subtilis xylanase A mutant S31Y (Bacillus subtilis) (UniProt P18429)
[17] = target: Bacillus subtilis xylanase A mutant S31D (Bacillus subtilis) (UniProt P18429)
[18] = target: Bacillus subtilis xylanase A mutant G120F (Bacillus subtilis) (UniProt P18429)
[19] = target: Bacillus subtilis xylanase A mutant N17D (Bacillus subtilis) (UniProt P18429)
[20] = target: Bacillus subtilis xylanase A mutant Y113D (Bacillus subtilis) (UniProt P18429)
[21] = target: Bacillus subtilis xylanase A mutant T123Y (Bacillus subtilis) (UniProt P18429)
[22] = target: Bacillus subtilis xylanase A mutant G34D (Bacillus subtilis) (UniProt P18429)
[23] = target: Bacillus subtilis xylanase A mutant I15K (Bacillus subtilis) (UniProt P18429)
[24] = target: Bacillus subtilis xylanase A mutant G13F (Bacillus subtilis) (UniProt P18429)
[25] = target: Bacillus subtilis xylanase A mutant G120K (Bacillus subtilis) (UniProt P18429)
[26] = target: Bacillus subtilis xylanase A mutant N29Y (Bacillus subtilis) (UniProt P18429)
[27] = target: Bacillus subtilis xylanase A mutant D119N (Bacillus subtilis) (UniProt P18429)

Q: Which results are given for wheat endogenous xylanase inhibitor?
A: Relative inhibition, % at 1, 26 XIU/ml [1]: 79%; Relative inhibition, % at 3, 15 XIU/ml [1]: 42%; Relative inhibition, % at 6, 3 XIU/ml [1]: 23%; Relative inhibition, % at 12, 6 XIU/ml [1]: 19%; Relative inhibition, % at 1, 26 XIU/ml [2]: 45%; Relative inhibition, % at 3, 15 XIU/ml [2]: 24%; Relative inhibition, % at 6, 3 XIU/ml [2]: 17%; Relative inhibition, % at 12, 6 XIU/ml [2]: 14%; Relative inhibition, % at 1, 26 XIU/ml [3]: 77%; Relative inhibition, % at 3, 15 XIU/ml [3]: 48%; Relative inhibition, % at 6, 3 XIU/ml [3]: 29%; Relative inhibition, % at 12, 6 XIU/ml [3]: 23%; Relative inhibition, % at 1, 26 XIU/ml [4]: 98%; Relative inhibition, % at 3, 15 XIU/ml [4]: 81%; Relative inhibition, % at 6, 3 XIU/ml [4]: 60%; Relative inhibition, % at 12, 6 XIU/ml [4]: 38%; Relative inhibition, % at 1, 26 XIU/ml [5]: 81%; Relative inhibition, % at 3, 15 XIU/ml [5]: 50%; Relative inhibition, % at 6, 3 XIU/ml [5]: 27%; Relative inhibition, % at 12, 6 XIU/ml [5]: 21%; Relative inhibition, % at 1, 26 XIU/ml [6]: 73%; Relative inhibition, % at 3, 15 XIU/ml [6]: 38%; Relative inhibition, % at 6, 3 XIU/ml [6]: 24%; Relative inhibition, % at 12, 6 XIU/ml [6]: 20%; Relative inhibition, % at 1, 26 XIU/ml [7]: 101%; Relative inhibition, % at 3, 15 XIU/ml [7]: 88%; Relative inhibition, % at 6, 3 XIU/ml [7]: 70%; Relative inhibition, % at 12, 6 XIU/ml [7]: 50%; Relative inhibition, % at 1, 26 XIU/ml [8]: 101%; Relative inhibition, % at 3, 15 XIU/ml [8]: 89%; Relative inhibition, % at 6, 3 XIU/ml [8]: 72%; Relative inhibition, % at 12, 6 XIU/ml [8]: 60%; Relative inhibition, % at 1, 26 XIU/ml [9]: 103%; Relative inhibition, % at 3, 15 XIU/ml [9]: 85%; Relative inhibition, % at 6, 3 XIU/ml [9]: 63%; Relative inhibition, % at 12, 6 XIU/ml [9]: 47%; Relative inhibition, % at 1, 26 XIU/ml [10]: 87%; Relative inhibition, % at 3, 15 XIU/ml [10]: 56%; Relative inhibition, % at 6, 3 XIU/ml [10]: 33%; Relative inhibition, % at 12, 6 XIU/ml [10]: 24%; Relative inhibition, % at 1, 26 XIU/ml [11]: 88%; Relative inhibition, % at 3, 15 XIU/ml [11]: 59%; Relative inhibition, % at 6, 3 XIU/ml [11]: 30%; Relative inhibition, % at 12, 6 XIU/ml [11]: 19%; Relative inhibition, % at 1, 26 XIU/ml [12]: 74%; Relative inhibition, % at 3, 15 XIU/ml [12]: 44%; Relative inhibition, % at 6, 3 XIU/ml [12]: 26%; Relative inhibition, % at 12, 6 XIU/ml [12]: 20%; Relative inhibition, % at 1, 26 XIU/ml [13]: 76%; Relative inhibition, % at 3, 15 XIU/ml [13]: 53%; Relative inhibition, % at 6, 3 XIU/ml [13]: 34%; Relative inhibition, % at 12, 6 XIU/ml [13]: 29%; Relative inhibition, % at 1, 26 XIU/ml [14]: 88%; Relative inhibition, % at 3, 15 XIU/ml [14]: 48%; Relative inhibition, % at 6, 3 XIU/ml [14]: 31%; Relative inhibition, % at 12, 6 XIU/ml [14]: 26%; Relative inhibition, % at 1, 26 XIU/ml [15]: 114%; Relative inhibition, % at 3, 15 XIU/ml [15]: 119%; Relative inhibition, % at 6, 3 XIU/ml [15]: 116%; Relative inhibition, % at 12, 6 XIU/ml [15]: 115%; Relative inhibition, % at 1, 26 XIU/ml [16]: 83%; Relative inhibition, % at 3, 15 XIU/ml [16]: 50%; Relative inhibition, % at 6, 3 XIU/ml [16]: 27%; Relative inhibition, % at 12, 6 XIU/ml [16]: 22%; Relative inhibition, % at 1, 26 XIU/ml [17]: 79%; Relative inhibition, % at 3, 15 XIU/ml [17]: 52%; Relative inhibition, % at 6, 3 XIU/ml [17]: 30%; Relative inhibition, % at 12, 6 XIU/ml [17]: 24%; Relative inhibition, % at 1, 26 XIU/ml [18]: 71%; Relative inhibition, % at 3, 15 XIU/ml [18]: 35%; Relative inhibition, % at 6, 3 XIU/ml [18]: 18%; Relative inhibition, % at 12, 6 XIU/ml [18]: 15%; Relative inhibition, % at 1, 26 XIU/ml [19]: 90%; Relative inhibition, % at 3, 15 XIU/ml [19]: 81%; Relative inhibition, % at 6, 3 XIU/ml [19]: 50%; Relative inhibition, % at 12, 6 XIU/ml [19]: 22%; Relative inhibition, % at 1, 26 XIU/ml [20]: 96%; Relative inhibition, % at 3, 15 XIU/ml [20]: 81%; Relative inhibition, % at 6, 3 XIU/ml [20]: 63%; Relative inhibition, % at 12, 6 XIU/ml [20]: 45%; Relative inhibition, % at 1, 26 XIU/ml [21]: 80%; Relative inhibition, % at 3, 15 XIU/ml [21]: 47%; Relative inhibition, % at 6, 3 XIU/ml [21]: 28%; Relative inhibition, % at 12, 6 XIU/ml [21]: 27%; Relative inhibition, % at 1, 26 XIU/ml [22]: 94%; Relative inhibition, % at 3, 15 XIU/ml [22]: 83%; Relative inhibition, % at 6, 3 XIU/ml [22]: 70%; Relative inhibition, % at 12, 6 XIU/ml [22]: 53%; Relative inhibition, % at 1, 26 XIU/ml [23]: 84%; Relative inhibition, % at 3, 15 XIU/ml [23]: 47%; Relative inhibition, % at 6, 3 XIU/ml [23]: 28%; Relative inhibition, % at 12, 6 XIU/ml [23]: 23%; Relative inhibition, % at 1, 26 XIU/ml [24]: 104%; Relative inhibition, % at 3, 15 XIU/ml [24]: 95%; Relative inhibition, % at 6, 3 XIU/ml [24]: 87%; Relative inhibition, % at 12, 6 XIU/ml [24]: 84%; Relative inhibition, % at 1, 26 XIU/ml [25]: 85%; Relative inhibition, % at 3, 15 XIU/ml [25]: 52%; Relative inhibition, % at 6, 3 XIU/ml [25]: 29%; Relative inhibition, % at 12, 6 XIU/ml [25]: 22%; Relative inhibition, % at 1, 26 XIU/ml [26]: 85%; Relative inhibition, % at 3, 15 XIU/ml [26]: 49%; Relative inhibition, % at 6, 3 XIU/ml [26]: 30%; Relative inhibition, % at 12, 6 XIU/ml [26]: 24%; Relative inhibition, % at 1, 26 XIU/ml [27]: 91%; Relative inhibition, % at 3, 15 XIU/ml [27]: 74%; Relative inhibition, % at 6, 3 XIU/ml [27]: 44%; Relative inhibition, % at 12, 6 XIU/ml [27]: 22%
